Source: patent US20030040461
Positions count from the first letter of the chain named. Numbers in names are those of the source.

T1: purified recombinant SLP-76
T1 sequence (Q13094 1-533, species assumed, looked up): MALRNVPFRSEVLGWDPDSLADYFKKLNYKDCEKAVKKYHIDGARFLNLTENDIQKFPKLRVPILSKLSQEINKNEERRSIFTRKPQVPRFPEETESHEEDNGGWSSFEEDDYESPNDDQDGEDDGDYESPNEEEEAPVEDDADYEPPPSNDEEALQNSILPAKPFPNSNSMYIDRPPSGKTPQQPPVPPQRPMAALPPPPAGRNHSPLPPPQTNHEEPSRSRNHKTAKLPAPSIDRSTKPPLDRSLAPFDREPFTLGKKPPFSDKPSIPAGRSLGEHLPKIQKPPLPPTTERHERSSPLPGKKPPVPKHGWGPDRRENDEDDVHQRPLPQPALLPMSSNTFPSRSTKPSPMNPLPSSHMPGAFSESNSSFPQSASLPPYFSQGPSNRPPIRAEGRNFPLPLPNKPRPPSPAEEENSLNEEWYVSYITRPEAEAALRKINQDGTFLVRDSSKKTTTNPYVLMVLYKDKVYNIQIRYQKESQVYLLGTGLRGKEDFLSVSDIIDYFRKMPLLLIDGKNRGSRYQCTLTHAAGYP

B1: FLAG-BTK wild-type (murine BTK with N-terminal 3XFLAG tag) (enzyme)
chain: MAAVILESIFLKRSQQKKKTSPLNFKKRLFLLTVHKLSYYEYDFERGRRGSKKGSIDVEKITCVETVIPEKNPPPERQIPRRGEESSEMEQISIIERFPYPFQVVYDEGPLYVFSPTEELRKRWIHQLKNVIRYNSDLVQKYHPCFWIDGQYLCCSQTAKNAMGCQILENRNGSLKPGSSHRKTKKPLPPTPEEDQILKKPLPPEPTAAPISTTELKKVVALYDYMPMNANDLQLRKGEEYFILEESNLPWWRARDKNGQEGYIPSNYITEAEDSIEMYEWYSKHMTRSQAEQLLKQEGKEGGFIVRDSSKAGKYTVSVFAKSTGEPQGVIRHYVVCSTPQSQYYLAEKHLFSTIPELINYHQHNSAGLISRLKYPVSKQNKNAPSTAGLGYGSWEIDPKDLTFLKELGTGQFGVVKYGKWRGQYDVAIKMIREGSMSEDEFIEEAKVMMNLSHEKLVQLYGVCTKQRPIFIITEYMANGCLLNYLREMRHRFQTQQLLEMCKDVCEAMEYLESKQFLHRDLAARNCLVNDQGVVKVSDFGLSRYVLDDEYTSSVGSKFPVRWSPPEVLMYSKFSSKSDIWAFGVLMWEIYSLGKMPYERFTNSETAEHIAQGLRLYRPHLASERVYTIMYSCWHEKADERPSFKILLSNILDVMDEES
modifications: N-terminal 3xFLAG tag
B2: FLAG-BTK E41K (gain of function mutant of murine BTK with N-terminal 3XFLAG tag) (enzyme)
chain: B1 chain with E41K
modifications: N-terminal 3xFLAG tag
B3: FLAG-BTK K430R (dominant negative mutant of murine BTK with N-terminal 3XFLAG tag) (enzyme)
chain: B1 chain with K430R
modifications: N-terminal 3xFLAG tag
B4: FLAG-BTK R28C (xid mutant of murine BTK with N-terminal 3XFLAG tag) (enzyme)
chain: B1 chain with R28C
modifications: N-terminal 3xFLAG tag

System: T1, purified recombinant SLP-76

Row | Protein | phosphorylation of SLP 76 (incorporation of phosphotyrosine into the substrate, IP kinase assay) | kinase activity
1 | B1 | addition of immunoprecipitated wild-type BTK resulted in phosphorylation of both BTK itself and the SLP 76 target | 
2 | B2 | Phosphorylation using extracts from the “gain of function” and dominant negative mutant cell contracts appeared to be reduced compared to the wild-type BTK | 
3 | B3 | Phosphorylation using extracts from the “gain of function” and dominant negative mutant cell contracts appeared to be reduced compared to the wild-type BTK | 
4 | B4 | Addition of BTK immunoprecipitated from the xid construct cell lysate resulted in hyperphosphorylation of the SLP 76 target | the kinase activity of BTK isolated from the xid mutant stable cell pool was significantly higher (approximately 10 fold)
